In patent US20040167319A1 (Genmab, published 2004):

Target: human CD20 (human) (UniProt P11836)
Test: dissociation of 125I-labelled F(ab)2 fragments from Ramos-EHRB cells, initial binding set at 100%

human CD20 (human), sequence (P11836 whole entry, the tested form may be a part): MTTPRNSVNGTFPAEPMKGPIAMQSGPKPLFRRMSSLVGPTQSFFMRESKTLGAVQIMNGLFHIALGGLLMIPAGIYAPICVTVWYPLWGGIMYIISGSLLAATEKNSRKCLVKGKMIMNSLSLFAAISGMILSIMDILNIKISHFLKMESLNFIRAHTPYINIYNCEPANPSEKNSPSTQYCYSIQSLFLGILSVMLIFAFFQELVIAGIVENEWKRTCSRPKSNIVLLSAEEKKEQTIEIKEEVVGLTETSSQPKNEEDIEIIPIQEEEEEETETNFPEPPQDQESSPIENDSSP

## F(ab′)2 fragment of rituximab
  percent still bound at 90 min: 50%
